Assay [1] concerns the target T1, human gastric inhibitory peptide receptor (GIPR) (human, UniProt P48546 22-466).
T1 sequence (looked up): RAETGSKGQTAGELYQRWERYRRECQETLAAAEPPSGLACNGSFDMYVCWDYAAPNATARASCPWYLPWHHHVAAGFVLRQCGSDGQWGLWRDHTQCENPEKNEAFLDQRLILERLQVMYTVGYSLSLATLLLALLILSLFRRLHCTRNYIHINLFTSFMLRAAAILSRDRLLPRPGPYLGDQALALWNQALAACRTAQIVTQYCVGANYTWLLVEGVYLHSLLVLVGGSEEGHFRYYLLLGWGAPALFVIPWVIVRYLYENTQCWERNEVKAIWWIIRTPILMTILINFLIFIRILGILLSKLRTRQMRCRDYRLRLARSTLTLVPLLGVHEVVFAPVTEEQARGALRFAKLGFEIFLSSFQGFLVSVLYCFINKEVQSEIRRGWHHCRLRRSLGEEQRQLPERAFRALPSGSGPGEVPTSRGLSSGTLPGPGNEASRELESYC
Put plainly: cell-based or functional assay.

Assay [2] concerns the target human GLP-1 receptor (GLP-1R) (human, UniProt P43220 24-463). In words: cell-based or functional assay.

Square brackets hold non-standard residues; d marks the D form. Ends that are not written are not given here. αMePhe(2-F) = C[C@](N)(Cc1ccccc1F)C(=O)O; αMeF = C[C@](N)(Cc1ccccc1)C(=O)O; Aib = CC(C)(N)C(=O)O

B1: Example 146 (peptide)
peptide: Y[Aib]EGT[αMePhe(2-F)]TSDYSIXLDEKAQ[Aib]EFIQYLIEGGPSSGAPPPS-NH2
modifications: not fully specified (residues 13, 17); printed as Y-Aib-EGT-αMeF(2F)-TSDYSI-αMeF-LDEK((2-[2-(2-Amino-ethoxy)-ethoxy]-acetyl)2-(γ-Glu)-CO-(CH2)18-CO2H)AQ-Aib-EFIQYLIEGGPSSGAPPPS-NH2
Consider B1, for which, in assay [1], the “hGIPR cAMP EC50 ratio” value stood at 1.98 and the “hGIPR cAMP Rel EC50” value worked out at 0.0583 nM. In assay [2], the “hGLP1R cAMP EC50 ratio” value was found to be 0.951 and the “hGLP1R cAMP Rel EC50” value stood at 0.0604 nM.

B2: Example 152 (peptide)
peptide: Y[Aib]EGT[αMePhe(2-F)]TSDYSIXLDEKAQ[Aib]EFI[Aib]YLIEGGPSSGAPPPS-NH2
modifications: not fully specified (residues 13, 17); printed as Y-Aib-EGT-αMeF(2F)-TSDYSI-αMeF-LDEK((2-[2-(2-Amino-ethoxy)-ethoxy]-acetyl)2-(γ-Glu)-CO-(CH2)18-CO2H)AQ-Aib-EFI-Aib-YLIEGGPSSGAPPPS-NH2
As for B2, in assay [1], the “hGIPR cAMP EC50 ratio” value is 2.57 and the “hGIPR cAMP Rel EC50” value worked out at 0.0504 nM. Further, in assay [2], the “hGLP1R cAMP EC50 ratio” value was 0.484 and the “hGLP1R cAMP Rel EC50” value was 0.0915 nM.

B3: Example 159 (peptide)
peptide: Y[Aib]EGT[αMePhe(2-F)]TSD[αMeF]SIXLDEKAQ[Aib]EFIEYLIEGGPSSGAPPPS-NH2
modifications: not fully specified (residues 13, 17); printed as Y-Aib-EGT-αMeF(2F)-TSD-αMeF-SI-αMeF-LDEK((2-[2-(2-Amino-ethoxy)-ethoxy]-acetyl)2-(γ-Glu)-CO-(CH2)18-CO2H)AQ-Aib-EFIEYLIEGGPSSGAPPPS-NH2
Regarding B3, in assay [1], the “hGIPR cAMP EC50 ratio” value came out at 0.039 and the “hGIPR cAMP Rel EC50” value was 4.6 nM. In addition, in assay [2], the “hGLP1R cAMP EC50 ratio” value was determined as 0.176 and the “hGLP1R cAMP Rel EC50” value worked out at 0.33 nM.

B4: Example 145 (peptide)
peptide: Y[Aib]EGT[αMeF]TSDASIXLDKKAQ[Aib]AFIEYLIEGGPSSGAPPPS-NH2
modifications: not fully specified (residues 13, 17); printed as Y-Aib-EGT-αMeF-TSDASI-αMeF-LDKK((2-[2-(2-Amino-ethoxy)-ethoxy]-acetyl)2-(γ-Glu)-CO-(CH2)18-CO2H)AQ-Aib-AFIEYLIEGGPSSGAPPPS-NH2
Turning to B4, in assay [1], the “hGIPR cAMP EC50 ratio” value was 2.46 and the “hGIPR cAMP Rel EC50” value came out at 0.0514 nM. For the same molecule, in assay [2], the “hGLP1R cAMP EC50 ratio” value came to 1.22 and the “hGLP1R cAMP Rel EC50” value is 0.0427 nM.

B5: Example 154 (peptide)
peptide: Y[Aib]EGT[αMePhe(2-F)]TSDHSIXLDEKAQ[Aib]EFIEYLIEGGPSSGAPPPS-NH2
modifications: not fully specified (residues 13, 17); printed as Y-Aib-EGT-αMeF(2F)-TSDHSI-αMeF-LDEK((2-[2-(2-Amino-ethoxy)-ethoxy]-acetyl)2-(γ-Glu)-CO-(CH2)18-CO2H)AQ-Aib-EFIEYLIEGGPSSGAPPPS-NH2
Turning to B5, in assay [1], the “hGIPR cAMP EC50 ratio” value came out at 5.9 and the “hGIPR cAMP Rel EC50” value is 0.0266 nM. Moreover, in assay [2], the “hGLP1R cAMP EC50 ratio” value turned out to be 1.23 and the “hGLP1R cAMP Rel EC50” value was 0.0393 nM.

B6: Example 153 (peptide)
peptide: Y[Aib]EGT[αMePhe(2-F)]TSDYSIXLDEKAQ[Aib]EFIHYLIEGGPSSGAPPPS-NH2
modifications: not fully specified (residues 13, 17); printed as Y-Aib-EGT-αMeF(2F)-TSDYSI-αMeF-LDEK((2-[2-(2-Amino-ethoxy)-ethoxy]-acetyl)2-(γ-Glu)-CO-(CH2)18-CO2H)AQ-Aib-EFIHYLIEGGPSSGAPPPS-NH2
In the case of B6, in assay [1], the “hGIPR cAMP EC50 ratio” value amounted to 1.7 and the “hGIPR cAMP Rel EC50” value was 0.0634 nM. Besides, in assay [2], the “hGLP1R cAMP EC50 ratio” value was 0.501 and the “hGLP1R cAMP Rel EC50” value is 0.0904 nM.

B7: Example 148 (peptide)
peptide: Y[Aib]EGT[αMePhe(2-F)]TSDYSIXLDEKAQ[Aib]EFIAYLIEGGPSSGAPPPS-NH2
modifications: not fully specified (residues 13, 17); printed as Y-Aib-EGT-αMeF(2F)-TSDYSI-αMeF-LDEK((2-[2-(2-Amino-ethoxy)-ethoxy]-acetyl)2-(γ-Glu)-CO-(CH2)18-CO2H)AQ-Aib-EFIAYLIEGGPSSGAPPPS-NH2
For the molecule B7, in assay [1], the “hGIPR cAMP EC50 ratio” value came to 2.7 and the “hGIPR cAMP Rel EC50” value stood at 0.043 nM. In addition, in assay [2], the “hGLP1R cAMP EC50 ratio” value was 0.859 and the “hGLP1R cAMP Rel EC50” value stood at 0.0626 nM.

B8: Example 151 (peptide)
peptide: Y[Aib]EGT[αMePhe(2-F)]TSDYSIXLDEKAQ[Aib]EFIPYLIEGGPSSGAPPPS-NH2
modifications: not fully specified (residues 13, 17); printed as Y-Aib-EGT-αMeF(2F)-TSDYSI-αMeF-LDEK((2-[2-(2-Amino-ethoxy)-ethoxy]-acetyl)2-(γ-Glu)-CO-(CH2)18-CO2H)AQ-Aib-EFIPYLIEGGPSSGAPPPS-NH2
In the case of B8, in assay [1], the “hGIPR cAMP EC50 ratio” value amounted to 0.262 and the “hGIPR cAMP Rel EC50” value turned out to be 0.41 nM. For the same molecule, in assay [2], the “hGLP1R cAMP EC50 ratio” value came out at 0.0278 and the “hGLP1R cAMP Rel EC50” value was 1.6 nM.

B9: Example 149 (peptide)
peptide: Y[Aib]EGT[αMePhe(2-F)]TSDYSIXLDEKAQ[Aib]EFIVYLIEGGPSSGAPPPS-NH2
modifications: not fully specified (residues 13, 17); printed as Y-Aib-EGT-αMeF(2F)-TSDYSI-αMeF-LDEK((2-[2-(2-Amino-ethoxy)-ethoxy]-acetyl)2-(γ-Glu)-CO-(CH2)18-CO2H)AQ-Aib-EFIVYLIEGGPSSGAPPPS-NH2
For the molecule B9, in assay [1], the “hGIPR cAMP EC50 ratio” value was found to be 1.82 and the “hGIPR cAMP Rel EC50” value amounted to 0.0711 nM. Moreover, in assay [2], the “hGLP1R cAMP EC50 ratio” value amounted to 0.484 and the “hGLP1R cAMP Rel EC50” value turned out to be 0.0916 nM.

B10: Example 150 (peptide)
peptide: Y[Aib]EGT[αMePhe(2-F)]TSDYSIXLDEKAQ[Aib]EFISYLIEGGPSSGAPPPS-NH2
modifications: not fully specified (residues 13, 17); printed as Y-Aib-EGT-αMeF(2F)-TSDYSI-αMeF-LDEK((2-[2-(2-Amino-ethoxy)-ethoxy]-acetyl)2-(γ-Glu)-CO-(CH2)18-CO2H)AQ-Aib-EFISYLIEGGPSSGAPPPS-NH2
Regarding B10, in assay [1], the “hGIPR cAMP EC50 ratio” value is 2.64 and the “hGIPR cAMP Rel EC50” value was found to be 0.0511 nM. Moreover, in assay [2], the “hGLP1R cAMP EC50 ratio” value turned out to be 0.79 and the “hGLP1R cAMP Rel EC50” value came out at 0.0575 nM.

B11: Example 160 (peptide)
peptide: YXEGTXTSDXSIXLDEKAQXTFIXYLIEGGPSSGAPPPS
modifications: Y-Aib-EGT-αMeF(2F)-TSD-Aib-SI-αMeF-LDEK((2-[2-(2-Amino-ethoxy)-ethoxy]-acetyl)2-(γ-Glu)-CO-(CH2)18-CO2H)AQ-Aib-TFI-(D-Glu)-YLIEGGPSSGAPPPS-NH2
Regarding B11, in assay [1], the “hGIPR cAMP EC50 ratio” value was 0.00712 and the “hGIPR cAMP Rel EC50” value came out at 21 nM. For the same molecule, in assay [2], the “hGLP1R cAMP EC50 ratio” value is 1.24 and the “hGLP1R cAMP Rel EC50” value came out at 0.0461 nM.
